According to paper PMC12884772, “Macrophagic Sclerostin Loop2‐ApoER2 Interaction Required by Sclerostin for Cardiovascular Protective Action” (Advanced Science, 2025):

T1: ApoER2 (Mus musculus, UniProt Q924X6)
T1 construct: FLAG; expressed in transfected cells; host or cells: RAW264.7
T1 sequence (Q924X6 29-996): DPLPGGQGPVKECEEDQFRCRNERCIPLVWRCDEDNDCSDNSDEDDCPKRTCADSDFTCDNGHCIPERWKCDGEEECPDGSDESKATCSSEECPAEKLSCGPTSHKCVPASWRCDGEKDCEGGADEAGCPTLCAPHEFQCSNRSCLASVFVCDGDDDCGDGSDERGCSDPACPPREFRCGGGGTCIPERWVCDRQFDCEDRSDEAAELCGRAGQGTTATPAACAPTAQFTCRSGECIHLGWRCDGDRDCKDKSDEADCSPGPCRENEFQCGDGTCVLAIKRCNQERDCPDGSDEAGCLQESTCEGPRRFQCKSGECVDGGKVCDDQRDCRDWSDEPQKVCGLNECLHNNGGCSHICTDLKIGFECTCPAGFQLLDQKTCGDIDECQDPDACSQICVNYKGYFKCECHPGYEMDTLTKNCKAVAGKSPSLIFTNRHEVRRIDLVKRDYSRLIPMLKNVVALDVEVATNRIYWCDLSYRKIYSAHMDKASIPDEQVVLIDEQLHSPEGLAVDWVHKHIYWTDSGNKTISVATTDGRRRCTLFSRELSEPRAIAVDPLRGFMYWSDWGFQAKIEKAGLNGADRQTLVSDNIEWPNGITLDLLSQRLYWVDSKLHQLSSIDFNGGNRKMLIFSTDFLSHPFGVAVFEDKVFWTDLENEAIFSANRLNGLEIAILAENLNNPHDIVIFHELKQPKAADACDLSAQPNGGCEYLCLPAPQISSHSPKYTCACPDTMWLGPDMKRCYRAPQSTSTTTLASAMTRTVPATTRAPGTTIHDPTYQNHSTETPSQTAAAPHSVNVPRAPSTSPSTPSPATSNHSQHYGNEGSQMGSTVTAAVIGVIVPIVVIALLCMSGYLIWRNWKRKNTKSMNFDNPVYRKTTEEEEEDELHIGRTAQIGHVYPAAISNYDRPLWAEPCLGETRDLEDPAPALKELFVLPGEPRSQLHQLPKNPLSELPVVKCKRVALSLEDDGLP


What was measured:
[1] = target: sclerostin loop2 (Mus musculus, UniProt Q99P68); test: Pull‐down assay of ApoER2 muteins with sclerostin loop2; format: binding; conditions: Figure 6D
sclerostin loop2, sequence (Q99P68 107-132 limits assumed): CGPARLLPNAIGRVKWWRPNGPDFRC
Method: The interaction residues within ApoER2 to sclerostin loop2 were determined in combination with pull‐down assay and BLI analysis. Based on the interaction residues within ApoER2 to sclerostin loop2, a series of Lrp8 mutations were developed. Based on the interaction residues within sclerostin loop2 to ApoER2, a series of sost mutations were developed.
Cell lysates were collected using RIPA Lysis and Extraction Buffer (Thermo Scientific, 89 901) supplemented with Protease Inhibitor Cocktail (CST, 5871) and centrifuged at 4000 rpm for 30 min at 4 °C, and replaced with binding buffer (PBS buffer, 20 mM imidazole, pH 8.0). After pretreatment with binding buffer three times, 20 µL Ni‐NTA Magnetic Agarose Beads were incubated with 6 µg His‐SOST and 6 µg His‐loop3 peptide, respectively, in binding buffer for 2 h at 4 °C with gentle rotation. The beads carrying His‐SOST and His‐loop3 peptide were then incubated with 500 µL cell lysate supernatant at 4 °C overnight with gentle rotation. To eliminate the influence of non‐specific binding between beads and cell lysate, 20 µL beads and 500 µL cell lysate were incubated under the same conditions. […]
The eluted liquid from pull‐down assay was then mixed with SDS‐PAGE loading buffer and boiled for 10 min at 95 °C to make samples. […] The ECL solution (BIO‐RAD, 1 705 061) was used to visualize detected proteins. […]

[2] = target: T1, ApoER2; test: Co‐immunoprecipitation of wild‐type/mutated sclerostin with ApoER2 in macrophages (RAW264.7); format: binding; conditions: Figure 6E
Method: The interaction of full‐length (FL)/truncated ApoER2 with full‐length (FL) /truncated sclerostin in macrophages (RAW264.7) were determined by pull‐down assay and Co‐IP assay. The binding affinity of ApoER2 to FL sclerostin and sclerostin loop2 were determined by biolayer interferometry (BLI) analysis. Moreover, the binding of sclerostin to ApoER2 on macrophages (RAW264.7) was examined by confocal microscopy.

| Binding ability of sclerostin loop2 to ApoER2 mutein versus wild‐type ApoER2 [1] | Interaction with ApoER2 by co‐IP [2] | Molecule |
| --- | --- | --- |
| dramatically weaker |  | ApoER2‐M2: ApoER2 mutein P253A, T254A, G268A, W269A, R270A (protein, UniProt Q924X6 29-996, looked up, variant P253A T254A G268A W269A R270A) Low-density lipoprotein …: DPLPGGQGPVKECEEDQFRCRNERCIPLVWRCDEDNDCSDNSDEDDCPKRTCADSDFTCDNGHCIPERWKCDGEEECPDGSDESKATCSSEECPAEKLSCGPTSHKCVPASWRCDGEKDCEGGADEAGCPTLCAPHEFQCSNRSCLASVFVCDGDDDCGDGSDERGCSDPACPPREFRCGGGGTCIPERWVCDRQFDCEDRSDEAAELCGRAGQGTTATPAACAAAAQFTCRSGECIHLAAACDGDRDCKDKSDEADCSPGPCRENEFQCGDGTCVLAIKRCNQERDCPDGSDEAGCLQESTCEGPRRFQCKSGECVDGGKVCDDQRDCRDWSDEPQKVCGLNECLHNNGGCSHICTDLKIGFECTCPAGFQLLDQKTCGDIDECQDPDACSQICVNYKGYFKCECHPGYEMDTLTKNCKAVAGKSPSLIFTNRHEVRRIDLVKRDYSRLIPMLKNVVALDVEVATNRIYWCDLSYRKIYSAHMDKASIPDEQVVLIDEQLHSPEGLAVDWVHKHIYWTDSGNKTISVATTDGRRRCTLFSRELSEPRAIAVDPLRGFMYWSDWGFQAKIEKAGLNGADRQTLVSDNIEWPNGITLDLLSQRLYWVDSKLHQLSSIDFNGGNRKMLIFSTDFLSHPFGVAVFEDKVFWTDLENEAIFSANRLNGLEIAILAENLNNPHDIVIFHELKQPKAADACDLSAQPNGGCEYLCLPAPQISSHSPKYTCACPDTMWLGPDMKRCYRAPQSTSTTTLASAMTRTVPATTRAPGTTIHDPTYQNHSTETPSQTAAAPHSVNVPRAPSTSPSTPSPATSNHSQHYGNEGSQMGSTVTAAVIGVIVPIVVIALLCMSGYLIWRNWKRKNTKSMNFDNPVYRKTTEEEEEDELHIGRTAQIGHVYPAAISNYDRPLWAEPCLGETRDLEDPAPALKELFVLPGEPRSQLHQLPKNPLSELPVVKCKRVALSLEDDGLP |
| dramatically weaker |  | ApoER2‐M8: ApoER2 mutein P253A, T254A, G268A, W269A, R270A, N311A, Q312A, E313A, encoded by Lrp8m (protein, UniProt Q924X6 29-996, looked up, variant P253A T254A G268A W269A R270A N311A Q312A E313A) Low-density lipoprotein …: DPLPGGQGPVKECEEDQFRCRNERCIPLVWRCDEDNDCSDNSDEDDCPKRTCADSDFTCDNGHCIPERWKCDGEEECPDGSDESKATCSSEECPAEKLSCGPTSHKCVPASWRCDGEKDCEGGADEAGCPTLCAPHEFQCSNRSCLASVFVCDGDDDCGDGSDERGCSDPACPPREFRCGGGGTCIPERWVCDRQFDCEDRSDEAAELCGRAGQGTTATPAACAAAAQFTCRSGECIHLAAACDGDRDCKDKSDEADCSPGPCRENEFQCGDGTCVLAIKRCAAARDCPDGSDEAGCLQESTCEGPRRFQCKSGECVDGGKVCDDQRDCRDWSDEPQKVCGLNECLHNNGGCSHICTDLKIGFECTCPAGFQLLDQKTCGDIDECQDPDACSQICVNYKGYFKCECHPGYEMDTLTKNCKAVAGKSPSLIFTNRHEVRRIDLVKRDYSRLIPMLKNVVALDVEVATNRIYWCDLSYRKIYSAHMDKASIPDEQVVLIDEQLHSPEGLAVDWVHKHIYWTDSGNKTISVATTDGRRRCTLFSRELSEPRAIAVDPLRGFMYWSDWGFQAKIEKAGLNGADRQTLVSDNIEWPNGITLDLLSQRLYWVDSKLHQLSSIDFNGGNRKMLIFSTDFLSHPFGVAVFEDKVFWTDLENEAIFSANRLNGLEIAILAENLNNPHDIVIFHELKQPKAADACDLSAQPNGGCEYLCLPAPQISSHSPKYTCACPDTMWLGPDMKRCYRAPQSTSTTTLASAMTRTVPATTRAPGTTIHDPTYQNHSTETPSQTAAAPHSVNVPRAPSTSPSTPSPATSNHSQHYGNEGSQMGSTVTAAVIGVIVPIVVIALLCMSGYLIWRNWKRKNTKSMNFDNPVYRKTTEEEEEDELHIGRTAQIGHVYPAAISNYDRPLWAEPCLGETRDLEDPAPALKELFVLPGEPRSQLHQLPKNPLSELPVVKCKRVALSLEDDGLP |
|  | No interaction | SOST^loop2m: sclerostin mutein with I94A, G95A, R96A, K98A, W99A, encoded by sost^loop2m (protein) QGWQAFRNDATEVIPGLGEYPEPPPENNQTMNRAENGGRPPHHPYDAKDVSEYSCRELHYTRFLTDGPCRSAKPVTELVCSGQCGPARLLPNAAAAVAAWRPNGPDFRCIPDRYRAQRVQLLCPGGAAPRSRKVRLVASCKCKRLTRFHNQSELKDFGPETARPQKGRKPRPGARGAKANQAELENAY |
